The results in this text go back to paper PMC7101349.

A word on the stoichiometry N: it is the number of molecules, sites or subunits per partner or assembly.

Common to all, as to assay: not stated; tetrameric assembly of the BRIL-KcsA linker constructs; how it was judged is not told
The target of test [1] is BRIL-2turn-KcsA (construct 7) (UniProt P0A334).
The target of test [2] is BRIL-AAA-KcsA (construct 2) (UniProt P0A334).
The target in test [3] is BRIL-AAAA-KcsA (construct 3, 1 turn) (UniProt P0A334).
The target in test [4] is BRIL-AAAAA-KcsA (construct 4) (UniProt P0A334).
In test [5] the target is BRIL-AARAAA-KcsA (construct 5) (UniProt P0A334).
Test [6] concerns the target BRIL-AARAAAA-KcsA (construct 6) (UniProt P0A334).

In test [1], “BRIL-2turn-KcsA (construct 7) (from UniProt P0A334 24-160)” yielded a stoichiometry N of 4.
“BRIL-AAA-KcsA (construct 2) (from UniProt P0A334 24-160)”: in test [2], the stoichiometry N worked out at 4.
Consider “BRIL-AAAA-KcsA (construct 3, 1 turn) (from UniProt P0A334 24-160)”, for which, in test [3], the stoichiometry N came out at 4.
“BRIL-AAAAA-KcsA (construct 4) (from UniProt P0A334 24-160)”: in test [4], the stoichiometry N was 4.
In test [5], “BRIL-AARAAA-KcsA (construct 5) (from UniProt P0A334 24-160)” displayed a stoichiometry N of 4.
Consider “BRIL-AARAAAA-KcsA (construct 6) (from UniProt P0A334 24-160)”, for which the stoichiometry N in test [6] came out at 4.
